For experiment [1], the target named is Frizzled-10 (microscale thermophoresis) (UniProt Q9ULW2). In words: MST.
The target in experiment [2] is Frizzled-7 (microscale thermophoresis) (UniProt O75084). In words: MST.

Sequence of Human OLFM4 protein (Q6UX06 21-510): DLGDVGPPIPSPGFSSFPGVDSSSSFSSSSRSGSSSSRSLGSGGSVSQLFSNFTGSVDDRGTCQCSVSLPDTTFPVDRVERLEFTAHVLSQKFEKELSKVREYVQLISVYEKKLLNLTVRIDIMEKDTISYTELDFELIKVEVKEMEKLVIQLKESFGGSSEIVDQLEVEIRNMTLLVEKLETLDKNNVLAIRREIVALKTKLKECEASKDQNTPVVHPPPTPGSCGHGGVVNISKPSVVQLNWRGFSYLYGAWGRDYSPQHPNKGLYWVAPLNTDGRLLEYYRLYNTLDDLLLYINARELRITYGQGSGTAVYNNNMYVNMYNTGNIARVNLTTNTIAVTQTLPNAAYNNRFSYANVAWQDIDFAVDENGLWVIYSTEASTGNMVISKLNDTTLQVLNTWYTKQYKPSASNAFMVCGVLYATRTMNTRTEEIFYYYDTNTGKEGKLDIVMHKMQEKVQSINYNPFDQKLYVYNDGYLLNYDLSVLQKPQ
Sequence of Frizzled-10 (microscale thermophoresis) (Q9ULW2 21-581): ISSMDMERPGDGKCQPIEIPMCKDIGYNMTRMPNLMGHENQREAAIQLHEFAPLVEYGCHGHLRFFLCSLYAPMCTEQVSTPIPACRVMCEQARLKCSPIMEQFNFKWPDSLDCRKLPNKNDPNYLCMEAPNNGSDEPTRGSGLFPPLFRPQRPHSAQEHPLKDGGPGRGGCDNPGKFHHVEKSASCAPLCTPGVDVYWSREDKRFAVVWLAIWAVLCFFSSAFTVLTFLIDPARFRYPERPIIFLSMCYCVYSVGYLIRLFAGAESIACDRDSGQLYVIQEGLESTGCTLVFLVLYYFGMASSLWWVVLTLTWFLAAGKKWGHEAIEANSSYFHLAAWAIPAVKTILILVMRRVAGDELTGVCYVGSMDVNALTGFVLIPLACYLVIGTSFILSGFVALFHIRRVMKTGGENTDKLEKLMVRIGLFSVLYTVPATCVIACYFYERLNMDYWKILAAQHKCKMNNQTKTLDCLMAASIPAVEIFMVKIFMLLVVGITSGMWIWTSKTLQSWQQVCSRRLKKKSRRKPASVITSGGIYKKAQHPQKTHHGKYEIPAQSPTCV

By Kd is commonly meant the concentration at which binding is half-saturated. Consider “Human OLFM4 protein (from UniProt Q6UX06 21-510) (natural protein)”, for which the dissociation constant Kd in experiment [1] is 10 µM; in experiment [2], 2.5 µM.

Values taken from PMC5057043.
